Data on 36 variants can be found in the Human Domainome abundance scans (Beltran et al. 2025).

± gives the uncertainty stated by the source.

B1: POU domain, class 3, transcription factor 2, residues 262 to 338; numbered along this chain, P20265 (parent)
chain: EDTPTSDDLEQFAKQFKQRRIKLGFTQADVGLALGTLYGNVFSQTTICRFEALQLSFKNMCKLKPLLNKWLEEADSS

In the data set the parent is B1. The data set is described as follows: abundance fitness (aPCA) (normalised: wild type 0, dead -1); higher = more abundant; growth selection in yeast, the domain comes from the species named. The settings on record: Homo sapiens.
Turning to EDTPTSDDLEQFAKQGKQRRIKLGFTQADVGLALGTLYGNVFSQTTICRFEALQLSFKNMCKLKPLLNKWLEEADSS [F16G], the abundance fitness was -0.818 ± 0.044.
Take EDTPTSDDLEQFAKQAKQRRIKLGFTQADVGLALGTLYGNVFSQTTICRFEALQLSFKNMCKLKPLLNKWLEEADSS [F16A]: the abundance fitness was -0.656 ± 0.045.
For EDTPTSDDLEQFAKQWKQRRIKLGFTQADVGLALGTLYGNVFSQTTICRFEALQLSFKNMCKLKPLLNKWLEEADSS [F16W], the abundance fitness is -0.595 ± 0.047.
Consider EDTPTSDDLEQFAKQEKQRRIKLGFTQADVGLALGTLYGNVFSQTTICRFEALQLSFKNMCKLKPLLNKWLEEADSS [F16E], for which the abundance fitness is -0.618 ± 0.058.
For EDTPTSDDLEQFAKQNKQRRIKLGFTQADVGLALGTLYGNVFSQTTICRFEALQLSFKNMCKLKPLLNKWLEEADSS [F16N], the abundance fitness was -0.704 ± 0.13.
On to EDTPTSDDLEQFAKQMKQRRIKLGFTQADVGLALGTLYGNVFSQTTICRFEALQLSFKNMCKLKPLLNKWLEEADSS [F16M], for which the abundance fitness is -0.606 ± 0.063.
In the case of EDTPTSDDLEQFAKQCKQRRIKLGFTQADVGLALGTLYGNVFSQTTICRFEALQLSFKNMCKLKPLLNKWLEEADSS [F16C], the abundance fitness was -0.765 ± 0.076.
For the variant EDTPTSDDLEQFAKQQKQRRIKLGFTQADVGLALGTLYGNVFSQTTICRFEALQLSFKNMCKLKPLLNKWLEEADSS [F16Q], the abundance fitness was -0.647 ± 0.088.
Regarding EDTPTSDDLEQFAKQRKQRRIKLGFTQADVGLALGTLYGNVFSQTTICRFEALQLSFKNMCKLKPLLNKWLEEADSS [F16R], the abundance fitness is -0.69 ± 0.04.
The value for EDTPTSDDLEQFAKQSKQRRIKLGFTQADVGLALGTLYGNVFSQTTICRFEALQLSFKNMCKLKPLLNKWLEEADSS [F16S] was -0.802 ± 0.059; that for EDTPTSDDLEQFAKQLKQRRIKLGFTQADVGLALGTLYGNVFSQTTICRFEALQLSFKNMCKLKPLLNKWLEEADSS [F16L] was -0.477 ± 0.035; that for EDTPTSDDLEQFAKQYKQRRIKLGFTQADVGLALGTLYGNVFSQTTICRFEALQLSFKNMCKLKPLLNKWLEEADSS [F16Y] was -0.767 ± 0.15.
The value for EDTPTSDDLEQFAKQIKQRRIKLGFTQADVGLALGTLYGNVFSQTTICRFEALQLSFKNMCKLKPLLNKWLEEADSS [F16I] was -0.753 ± 0.13; that for EDTPTSDDLEQFAKQHKQRRIKLGFTQADVGLALGTLYGNVFSQTTICRFEALQLSFKNMCKLKPLLNKWLEEADSS [F16H] was -0.91 ± 0.19; that for EDTPTSDDLEQFAKQKKQRRIKLGFTQADVGLALGTLYGNVFSQTTICRFEALQLSFKNMCKLKPLLNKWLEEADSS [F16K] was -0.633 ± 0.079.
EDTPTSDDLEQFAKQVKQRRIKLGFTQADVGLALGTLYGNVFSQTTICRFEALQLSFKNMCKLKPLLNKWLEEADSS [F16V]: the abundance fitness was -0.671 ± 0.042.
EDTPTSDDLEQFAKQPKQRRIKLGFTQADVGLALGTLYGNVFSQTTICRFEALQLSFKNMCKLKPLLNKWLEEADSS [F16P]: the abundance fitness is -0.733 ± 0.081.
For EDTPTSDDLEQFAKQTKQRRIKLGFTQADVGLALGTLYGNVFSQTTICRFEALQLSFKNMCKLKPLLNKWLEEADSS [F16T], the abundance fitness is -0.677 ± 0.057.
The value for EDTPTSDDLEQFAKQDKQRRIKLGFTQADVGLALGTLYGNVFSQTTICRFEALQLSFKNMCKLKPLLNKWLEEADSS [F16D] was -0.854 ± 0.1.
In the case of EDTPTSDDLEQFAKQFKLRRIKLGFTQADVGLALGTLYGNVFSQTTICRFEALQLSFKNMCKLKPLLNKWLEEADSS [Q18L], the abundance fitness is -0.13 ± 0.037.
For the variant EDTPTSDDLEQFAKQFKHRRIKLGFTQADVGLALGTLYGNVFSQTTICRFEALQLSFKNMCKLKPLLNKWLEEADSS [Q18H], the abundance fitness was -0.193 ± 0.093.
Regarding EDTPTSDDLEQFAKQFKKRRIKLGFTQADVGLALGTLYGNVFSQTTICRFEALQLSFKNMCKLKPLLNKWLEEADSS [Q18K], the abundance fitness amounted to 0.024 ± 0.062.
With EDTPTSDDLEQFAKQFKMRRIKLGFTQADVGLALGTLYGNVFSQTTICRFEALQLSFKNMCKLKPLLNKWLEEADSS [Q18M], the abundance fitness is -0.089 ± 0.045.
On to EDTPTSDDLEQFAKQFKCRRIKLGFTQADVGLALGTLYGNVFSQTTICRFEALQLSFKNMCKLKPLLNKWLEEADSS [Q18C], for which the abundance fitness was -0.157 ± 0.044.
Regarding EDTPTSDDLEQFAKQFKNRRIKLGFTQADVGLALGTLYGNVFSQTTICRFEALQLSFKNMCKLKPLLNKWLEEADSS [Q18N], the abundance fitness was -0.292 ± 0.22.
Turning to EDTPTSDDLEQFAKQFKDRRIKLGFTQADVGLALGTLYGNVFSQTTICRFEALQLSFKNMCKLKPLLNKWLEEADSS [Q18D], the abundance fitness was -0.068 ± 0.061.
Then EDTPTSDDLEQFAKQFKIRRIKLGFTQADVGLALGTLYGNVFSQTTICRFEALQLSFKNMCKLKPLLNKWLEEADSS [Q18I], with -0.223 ± 0.12; and EDTPTSDDLEQFAKQFKGRRIKLGFTQADVGLALGTLYGNVFSQTTICRFEALQLSFKNMCKLKPLLNKWLEEADSS [Q18G], with -0.273 ± 0.031; and EDTPTSDDLEQFASQFKQRRIKLGFTQADVGLALGTLYGNVFSQTTICRFEALQLSFKNMCKLKPLLNKWLEEADSS [K14S], with -0.073 ± 0.051.
In the case of EDTPTSDDLEQFAQQFKQRRIKLGFTQADVGLALGTLYGNVFSQTTICRFEALQLSFKNMCKLKPLLNKWLEEADSS [K14Q], the abundance fitness amounted to 0.075 ± 0.098.
As for EDTPTSDDLEQFATQFKQRRIKLGFTQADVGLALGTLYGNVFSQTTICRFEALQLSFKNMCKLKPLLNKWLEEADSS [K14T], the abundance fitness was -0.121 ± 0.087.
On to EDTPTSDDLEQFARQFKQRRIKLGFTQADVGLALGTLYGNVFSQTTICRFEALQLSFKNMCKLKPLLNKWLEEADSS [K14R], for which the abundance fitness is -0.077 ± 0.064.
With EDTPTSDDLEQFAWQFKQRRIKLGFTQADVGLALGTLYGNVFSQTTICRFEALQLSFKNMCKLKPLLNKWLEEADSS [K14W], the abundance fitness is -0.182 ± 0.082.
For the variant EDTPTSDDLEQFAMQFKQRRIKLGFTQADVGLALGTLYGNVFSQTTICRFEALQLSFKNMCKLKPLLNKWLEEADSS [K14M], the abundance fitness was -0.082 ± 0.093.
Turning to EDTPTSDDLEQFAVQFKQRRIKLGFTQADVGLALGTLYGNVFSQTTICRFEALQLSFKNMCKLKPLLNKWLEEADSS [K14V], the abundance fitness was -0.134 ± 0.054.
As for EDTPTSDDLEQFALQFKQRRIKLGFTQADVGLALGTLYGNVFSQTTICRFEALQLSFKNMCKLKPLLNKWLEEADSS [K14L], the abundance fitness is -0.058 ± 0.053.
